Test results taken from PMC9653972, “Thermophilic Inorganic Pyrophosphatase Ton1914 from Thermococcus onnurineus NA1 Removes the Inhibitory Effect of Pyrophosphate” (International Journal of Molecular Sciences, 2022).

Substrate: O=P(O)(O)OP(=O)(O)O
Experiment: purified protein
Assay type: biochemical, Thermococcus onnurineus
Details: standard assay: 2 mM MgCl2, 50 mM Tris-HCl, 80 °C, optimum pH 9.0 (pH of the kinetic run not stated)

B1: Ton1914 (Thermococcus onnurineus NA1) (protein)
chain: MNPFHELEPGPEVPEVVYALIEIPKGSRNKYELDKKTGLLKLDRVLYSPFFYPVDYGIIPQTWYDDGDPFDIMVIMREPVYPLTIVEARPIGIMKMEDSGDKDWKVLAVPVEDPYFNDWKDIDDVPKAFLDEIAHFFQRYKELQGKVTTVEGWGTAEEAKREILRAIEMYKEKFGKKE
notes: about 120 kDa native-PAGE, homo-hexamer; pET28a Nco I/Xho I, E. coli BL21(DE3), heat-purified 80 °C; EC 3.6.1.1, Family I
- Km: 1116 µM
- kcat: 30000 s⁻¹
- kcat/Km: 2.68e+07 M⁻¹ s⁻¹
